For series [1], the target named is FRedB fused to the zinc finger DNA-binding domain of murine Zif268 (pACTR-fredB) (Lactobacillus johnsonii N6.2). Put plainly: two-hybrid; bacterial two-hybrid in E. coli KDZifΔZ (ω subunit fusion and Zif268 fusion), 10 μM IPTG, β-galactosidase activity with CPRG in arbitrary units; static or aerobic growth.
Another series concerns the target T1, FRedA/B (Lactobacillus johnsonii, UniProt A0A7D9N7Z8+A0A7D9N811).
T1 construct: gene T285_08435; full-length, both chains N-terminal His6, co-expressed and co-purified from E. coli BL21 (p15TV-fredA + pCDF-his-fredB); heterodimer 43 kDa
Put plainly: isothermal titration calorimetry. In kind it is binding. An excerpt:
isothermal titration calorimetry on FRedA/B | FMN binding to the FRedA/B heterodimer is an exergonic reaction
(Isothermal titration calorimetry measures the heat released or taken up as one component is titrated into another.)

Series [2] has as its target His6-FRedB (putative FMN reductase FRedB of Lactobacillus johnsonii N6.2, from p15TV-fredB, individually purified) (Lactobacillus johnsonii N6.2).
Substrate in series [3]: Cc1cc2nc3c(=O)[nH]c(=O)nc-3n(C[C@H](O)[C@H](O)[C@H](O)COP(=O)(O)O)c2cc1C
Put plainly: purified protein. Format: biochemical, Lactobacillus johnsonii. Conditions: fixed NADH, 100 mM MES pH 5.5, 37 °C.

Substrate in series [4]: Cc1cc2nc3c(=O)[nH]c(=O)nc-3n(C[C@H](O)[C@H](O)[C@H](O)COP(=O)(O)OP(=O)(O)OC[C@H]3O[C@@H](n4cnc5c(N)ncnc54)[C@H](O)[C@@H]3O)c2cc1C
Put plainly: purified protein. Format: biochemical, Lactobacillus johnsonii. To be noted: fixed NADH, 100 mM MES pH 5.5, 37 °C.

Substrate in series [5]: NC(=O)C1=CN([C@@H]2O[C@H](COP(=O)(O)OP(=O)(O)OC[C@H]3O[C@@H](n4cnc5c(N)ncnc54)[C@H](O)[C@@H]3O)[C@@H](O)[C@H]2O)C=CC1
Kind of series: purified protein. In kind it is biochemical, Lactobacillus johnsonii. To be noted: fixed flavin electron acceptor, 100 mM MES pH 5.5, 37 °C.

The record followed here is publication PMC4500961, “H2O2 production rate in Lactobacillus johnsonii is modulated via the interplay of a heterodimeric flavin oxidoreductase with a soluble 28 Kd PAS domain containing protein” (Frontiers in Microbiology, 2015).

In turn, “FRedA fused to the ω subunit of E. coli RNA polymerase (pBR-fredA) (natural protein)” registered a β-galactosidase activity in series [1] of 11700 AU.

For orientation: Kd means the equilibrium constant for the complex coming apart. The low end stands for tighter binding, the high end for weaker binding. With `Cc1cc2nc3c(=O)[nH]c(=O)nc-3n(C[C@H](O)[C@H](O)[C@H](O)COP(=O)(O)O)c2cc1C` [FMN], the Kd on FRedA/B is 1960 ± 130 nM.

As for “His6-FRedA (putative FMN reductase FRedA of Lactobacillus johnsonii N6.2, from p15TV-fredA) (natural protein)”, in series [2], the initial rate (V0) of NADH oxidase activity, FRedB preincubated with purified LjPAS (reduced by 50%) (μmol min^-1 mg^-1) worked out at 2.6; the initial rate (Vo) of NADH oxidase activity, both monomers combined and incubated with FMN before addition of NADH (μmol min^-1 mg^-1) is 31.3; the initial rate of NADH oxidase activity, FRedA preincubated with FMN before addition of FRedB (μmol min^-1 mg^-1) came out at 0.27; the initial rate of NADH oxidase activity, FRedB preincubated with FMN before addition of FRedA (μmol min^-1 mg^-1) was 6.48. In addition, the initial rate of NADH oxidase activity, purified LjPAS added after FRedA and FRedB were preincubated with FMN (not significantly slower) (μmol min^-1 mg^-1) in series [2] is 25.2.

B1: FRedA/B (Lactobacillus johnsonii N6.2) (protein)
chain 1: MKLLAIVGTNADFSYNRFLDQFMAKRYKDQAEIEVYEIADLPRFKKEAQPDSKVEEFKNKIREADGVIFATPEYDHGIPSALKSAMEWTGSHAQGNADVMKMKPAMVLGTSYGIQGASRAQEEMREILLSPDQSANVLPGNEVLIGHAADKFDKNTGDLLDQETIHAIDLAFNNFVKFVEQAQK
chain 2: MKLFAIVGSNADHSYNRDLLNFIKKHFTDRYDIELGEVKDLPMFKEGVKEPAAVASFAKKVADADAVLISTPEQQHSVPSSLKSALEWLSSAEHPFKDKPVVIVGTSVLPQGSARGQSHLKLVLSSPGFGAKVFNGDEFMMGTAPEQFDENGNLPAGTVKFLDHFFDEFDSFYAEVSK
notes: full-length, both chains N-terminal His6, co-expressed and co-purified from E. coli BL21 (p15TV-fredA + pCDF-his-fredB); heterodimer 43 kDa
Usually Km stands for the concentration of substrate that gives half-maximal velocity. A word on the Vmax: it is the top rate of the reaction or transport when substrate is in excess. As usually defined, the kcat is the maximal rate divided by the concentration of active sites. The kcat/Km is the turnover number divided by the Michaelis constant. As to B1, in “purified protein [3]”, the Km came to 20.36 ± 2.6 µM, the Vmax was determined as 204 µmol/min/mg, the kcat stood at 146 s⁻¹ and the kcat/Km turned out to be 7.16e+06 M⁻¹ s⁻¹. Moreover, in the series “purified protein [4]”, the Km stood at 19.85 ± 2.5 µM, the Vmax is 67 µmol/min/mg, the kcat was 48 s⁻¹ and the kcat/Km came to 2.42e+06 M⁻¹ s⁻¹. Further, in the series “purified protein [5]”, the Km was found to be 59.68 ± 5.8 µM, the Vmax was 185 µmol/min/mg, the kcat came out at 132 s⁻¹ and the kcat/Km was determined as 2.22e+06 M⁻¹ s⁻¹.
